From publication PMC11526107, “ZC3HAV1 facilitates STING activation and enhances inflammation” (Communications Biology, 2024) come the findings set out here.

Series [1] deals with the molecule itself. As to the kind of experiment: native gel or EMSA; native PAGE (7% gel, no SDS, sodium deoxycholate in the cathode buffer) and immunoblot of lysates of mouse peritoneal macrophages after HSV-1, ISD or cGAMP; WT against Zc3hav1^-/- or Zc3hav1 siRNA (dimer and oligomer decreased). In general terms: Mobility shift assays separate free from complexed probe on a gel.

Series [2] concerns the molecule itself. As to the kind of experiment: native gel or EMSA; native PAGE and immunoblot of lysates of HEK293T cells transfected with STING with or without ZAPS or ZAPL, stimulated with DMXAA.

B1: Stimulator of interferon genes (STING), endogenous in mouse peritoneal macrophages (natural protein, UniProt Q3TBT3 1-378, looked up)
chain: MPYSNLHPAIPRPRGHRSKYVALIFLVASLMILWVAKDPPNHTLKYLALHLASHELGLLLKNLCCLAEELCHVQSRYQGSYWKAVRACLGCPIHCMAMILLSSYFYFLQNTADIYLSWMFGLLVLYKSLSMLLGLQSLTPAEVSAVCEEKKLNVAHGLAWSYYIGYLRLILPGLQARIRMFNQLHNNMLSGAGSRRLYILFPLDCGVPDNLSVVDPNIRFRDMLPQQNIDRAGIKNRVYSNSVYEILENGQPAGVCILEYATPLQTLFAMSQDAKAGFSREDRLEQAKLFCRTLEEILEDVPESRNNCRLIVYQEPTDGNSFSLSQEVLRHIRQEEKEEVTMNAPMTSVAPPPSVLSQEPRLLISGMDQPLPLRTDLI
notes: mouse STING, endogenous; also called TMEM173; MITA; source: endogenous, mouse peritoneal macrophage lysate
The term stoichiometry N denotes the number of molecules, sites or subunits per partner or assembly. On to B1, for which the “stoichiometry N” value in series [1] was found to be 2.

B2: exogenous STING in HEK293T cells (native PAGE, Fig. 3i) (natural protein, UniProt Q3TBT3 1-378, looked up)
chain: B1 chain
notes: Probably the same construct as m9 or m10; the text and legend say only 'the indicated plasmids'; source: HEK293T, transfected, in lysate
In the case of B2, the “stoichiometry N” value in series [2] amounted to 2.
